According to patent US20260242417A1:

Target: Patched

Mean luminescence intensity (Gli-luciferase reporter, NIH3T3 cells) (luminescence intensity): 6460
Substance: Recombinant mouse Sonic HedgeHog (mShh) (from UniProt Q62226) (ligand)
